Patent US20100279930A1 (published 2010)

Molecular target: human Y4 receptor (human, UniProt P50391 1-375)
Assay: 125I-PP displacement

Chain of human Y4 receptor (P50391 whole entry): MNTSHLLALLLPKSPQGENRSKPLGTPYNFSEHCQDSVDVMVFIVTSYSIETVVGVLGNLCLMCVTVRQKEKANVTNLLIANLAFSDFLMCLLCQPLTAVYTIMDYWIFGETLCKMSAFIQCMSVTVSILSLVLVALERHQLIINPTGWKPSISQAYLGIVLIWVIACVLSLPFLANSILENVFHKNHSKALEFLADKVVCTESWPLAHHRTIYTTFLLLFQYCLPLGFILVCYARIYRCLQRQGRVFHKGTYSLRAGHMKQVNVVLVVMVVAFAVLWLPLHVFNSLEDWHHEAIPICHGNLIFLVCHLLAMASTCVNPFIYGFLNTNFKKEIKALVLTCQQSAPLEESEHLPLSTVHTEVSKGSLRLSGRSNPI

| Binder | IC50 [nM] |
| --- | --- |
| PLEPEYPGDDATPQEMARYAAELRRYINKLTRPRY [4058679] | 0.078 |
| PLEPEYPGDDATPEEMAKYAAELRRYINKLTRPRY [4058673] | 0.091 |
| PAPLEPKYPGDDATPQEMARYAAELRRYINKLTRPRY [4058686] | 0.076 |
| AAPLEPEYPGDDATPQEMARYAAELRRYINKLTRPRY [4058683] | 0.081 |
| PAPLEPHYPGDDATPEELAKYAAELRRYINKLTRPRY [4058705] | 0.097 |
| GAPLEPEYPGDDATPQEMARYAAELRRYINKLTRPRY [4058682] | 0.076 |
| APLEPEYPGDDATPQEMARYAAELRRYINKLTRPRY [4058680] | 0.069 |
| PLEPHYPGDNATPEELAKYAAELRRYINKLTRPRY [4058702] | 0.086 |
| PAPLEPTYPGDNATPEELARYAAALRRYINKLTRPRY [4058738] | 0.055 |
| HAPLEPKYPGDNATPEELAKYAAELRRYINKLTRPRY [4058692] | 0.131 |
| AKPLEPKYPGDNATPEELAKYAAELRRYINKLTRPRY [4058690] | 0.071 |
| GAPLEPHYPGDNATPEEMAKYAAELRRYINKLTRPRY [4058698] | 0.072 |
| PAPLEPKYPGDNASPEQMAKYAAELRRYINKLTRPRY [4058669] | 0.043 |

Continued by falling IC50, values first:

| IC50 [nM] | Binder |
| --- | --- |
| 0.129 | HAPLEPKYPGDDATPEELAHYYSELRRYINKLTRPRY [4058710] |
| 0.099 | PAPLEPHYPGDDATPEEMAKYAAELRRYINKLTRPRY [4058701] |
| 0.096 | PLEPKYPGDNATPEELAKYAAELRRYINKLTRPRY [4058687] |
| 0.095 | AAPLEPHYPGDNATPEEMAKYAAELRRYINKLTRPRY [4058697] |
| 0.094 | AAPLEPHYPGDNATPEELAKYAAELRRYINKLTRPRY [4058704] |
| 0.09 | AKPLEPEYPGDDATPQEMARYAAELRRYINKLTRPRY [4058685] |
| 0.09 | PAPLEPHYPGDNATPEELAKYAAELRRYINKLTRPRY [4058678] |
| 0.089 | APLEPKYPGDNATPEELAKYAAELRRYINKLTRPRY [4058688] |
| 0.087 | YAPLEPEYPGDDATPQEMARYAAELRRYINKLTRPRY [4058684] |
| 0.087 | PAPLEPEYPGDDATPQEMARYAAELRRYINKLTRPRY [4058681] |
| 0.08 | PAPLEPKYPGDDATPQQMAKYAAELRRYINKLTRPRY [4058670] |
